± gives the standard deviation of the averaged measurements.
Columns and labels:
[1] = test system: VchCAST RNA-guided transposition machinery (E. coli BL21(DE3) host, lacZ target); experiment: relative integration efficiency (T-LR orientation) vs wild-type transposon end (log2 (normalized fold change)); transposon end mutated: right end (5 bp flank + 75 bp right end); higher = more efficient transposition
Procedure, shortened: (§1)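 Barcoded pools of 1549 left-end or 1849 right-end transposon variants were cloned into a pUC57 mini-transposon donor. Each pool was co-transformed with a T7-driven effector plasmid (CRISPR array, tniQ-cas8-cas7-cas6, tnsA-tnsB-tnsC) into E. coli BL21(DE3) and plated with 0.1 mM IPTG at 37°C for 18 h. Input plasmids and genomic integration junctions were PCR-amplified and Illumina-sequenced, with two biological output replicates and four wild-type barcodes as reference. Relative integration efficiency is output/input barcode abundance fold change, normalised to wild-type barcodes and log-transformed.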

[2] = test system: VchCAST RNA-guided transposition machinery (E. coli BL21(DE3) host, lacZ target); experiment: relative integration efficiency (T-RL orientation) vs wild-type transposon end (log2 (normalized fold change)); transposon end mutated: right end (5 bp flank + 75 bp right end); higher = more efficient transposition
Procedure, shortened: as §1

| Sequence | relative integration efficiency (log2) [1] | relative integration efficiency (log2) [2] |
| --- | --- | --- |
| ACATTTGTTGATACAACCATAAAATGATAATTACAACCATAAGTTGATATTTTTCACAACCATAAAATGATAATTACTCTGATCATAGTCAGACCAACATTGCTACGACCCGTATTCGCACCGACAC | -0.0321 ± 0.022 | -0.308 ± 0.21 |
| ACATTTGTTGATACAACCATAAAATGATAATTACAACCATAAGTTGATATTTTTCACAACCATAAAGTGATATTTACTCTGATCATAGTCAGACCAACATTGCTACGACCCGTATTCGCACCGACAC | 0.666 ± 0.12 | 0.274 ± 0.2 |
| ACATTTGTTGATACAACCATAAAATGATAATTACAACCATAAGTTGATATTTTTCACAACCATAAGTTGATATTTTCTCTGATCATAGTCAGACCAACATTGCTACGACCCGTATTCGCACCGACAC | -0.201 ± 0.37 | 0.0355 ± 0.25 |
| ACATTTGTTGATACAACCATAAAATGATAATTACAACCATAAGTTGATATTTTTCACAACCATATATTGATATCTCCTCTGATCATAGTCAGACCAACATTGCTACGACCCGTATTCGCACCGACAC | 0.235 ± 0.079 | -0.125 ± 0.19 |
| ACATTTGTTGATACAACCATAAAATGATAATTACAACCATAAGTTGATATTTTTCACACCCATAAATTGATAATTACTCTGATCATAGTCAGACCAACATTGCTACGACCCGTATTCGCACCGACAC | -0.141 ± 0.51 | -0.168 ± 0.11 |
| ACATTTGTTGATACAACCATAAAATGATAATTACAACCATAAGTTGATATTTTTCACACCCATAAATTGATATTGCCTCTGATCATAGTCAGACCAACATTGCTACGACCCGTATTCGCACCGACAC | 0.0596 ± 0.086 | -0.349 ± 0.2 |
| ACATTTGTTGATACAACCATAAAATGATAATTACAACCATAAGTTGATATTTTTCAGTGGGTATTTAACTATAACGCTCTGATCATAGTCAGACCAACATTGCTACGACCCGTATTCGCACCGACAC | 2.72 ± 0.21 | -0.515 ± 0.22 |
| ACATTTGTTGATACAACCATAAAATGATAATTACAACCATATATTGATATCTCTCACAACCATAAAATGATAATTACTCTGATCATAGTCAGACCAACATTGCTACGACCCGTATTCGCACCGACAC | 0.146 ± 0.15 | -0.257 ± 0.18 |
| ACATTTGTTGATACAACCATAAAATGATAATTACAACCATATATTGATATCTCTCACAACCATAAAGTGATATTTACTCTGATCATAGTCAGACCAACATTGCTACGACCCGTATTCGCACCGACAC | 0.0743 ± 0.02 | -0.5 ± 0.27 |
| ACATTTGTTGATACAACCATAAAATGATAATTACAACCATATATTGATATCTCTCACAACCATAAGTTGATATTTTCTCTGATCATAGTCAGACCAACATTGCTACGACCCGTATTCGCACCGACAC | -0.141 ± 0.5 | -0.374 ± 0.19 |
| ACATTTGTTGATACAACCATAAAATGATAATTACAACCATATATTGATATCTCTCACAACCATATATTGATATCTCCTCTGATCATAGTCAGACCAACATTGCTACGACCCGTATTCGCACCGACAC | 0.0166 ± 0.61 | -0.574 ± 0.17 |
| ACATTTGTTGATACAACCATAAAATGATAATTACAACCATATATTGATATCTCTCACACCCATAAATTGATAATTACTCTGATCATAGTCAGACCAACATTGCTACGACCCGTATTCGCACCGACAC | -0.0249 ± 0.15 | -0.651 ± 0.2 |
| ACATTTGTTGATACAACCATAAAATGATAATTACAACCATATATTGATATCTCTCACACCCATAAATTGATATTGCCTCTGATCATAGTCAGACCAACATTGCTACGACCCGTATTCGCACCGACAC | 0.0992 ± 0.38 | -0.424 ± 0.15 |
| ACATTTGTTGATACAACCATAAAATGATAATTACAACCATATATTGATATCTCTCAGTGGGTATTTAACTATAACGCTCTGATCATAGTCAGACCAACATTGCTACGACCCGTATTCGCACCGACAC | 3.01 ± 0.18 | -0.933 ± 0.28 |
| ACATTTGTTGATACAACCATAAAATGATAATTACACAAATAAATTGATAATTATCACACCCATAAATTGATATTGCCTCTGATCATAGTCAGACCAACATTGCTACGACCCGTATTCGCACCGACAC | -1.82 ± 0.23 | -0.996 ± 0.19 |
| ACATTTGTTGATACAACCATAAAATGATAATTACACAACGAAATTGATAATTATCACACCCATAAATTGATATTGCCTCTGATCATAGTCAGACCAACATTGCTACGACCCGTATTCGCACCGACAC | -3.53 ± 0.42 | -3.5 ± 0.2 |
| ACATTTGTTGATACAACCATAAAATGATAATTACACAACGCCCGGTCGCCGGCGACACAAACGCCCGGTCGCGGTAAGAGGATCATAGTCAGACCAACATTGCTACGACCCGTATTCGCACCGACAC | 0.604 ± 0.2 | -2.42 ± 0.23 |
| ACATTTGTTGATACAACCATAAAATGATAATTACACCACGCAATTGATAATTATCACACCCATAAATTGATATTGCCTCTGATCATAGTCAGACCAACATTGCTACGACCCGTATTCGCACCGACAC | -2.53 ± 0.18 | -3.04 ± 0.044 |
| ACATTTGTTGATACAACCATAAAATGATAATTACACCACGCCCGGTCGCCGGCGACACAAACGCCCGGTCGCGGTAAGAGGATCATAGTCAGACCAACATTGCTACGACCCGTATTCGCACCGACAC | 0.799 ± 0.081 | -2.31 ± 0.082 |
| ACATTTGTTGATACAACCATAAAATGATAATTACACCACTAAATTGATAATTATCACACCCATAAATTGATATTGCCTCTGATCATAGTCAGACCAACATTGCTACGACCCGTATTCGCACCGACAC | -2.09 ± 0.036 | -1.78 ± 0.12 |
| ACATTTGTTGATACAACCATAAAATGATAATTACACCCAATAATTGATAATTATCACACCCATAAATTGATATTGCCTCTGATCATAGTCAGACCAACATTGCTACGACCCGTATTCGCACCGACAC | -0.381 ± 0.18 | -0.277 ± 0.02 |
| ACATTTGTTGATACAACCATAAAATGATAATTACACCCAATTTTTGATAATTATCACACCCATAAATTGATATTGCCTCTGATCATAGTCAGACCAACATTGCTACGACCCGTATTCGCACCGACAC | -0.688 ± 0.35 | -0.529 ± 0.16 |
| ACATTTGTTGATACAACCATAAAATGATAATTACACCCAGCAATTGATAATTATCACACCCATAAATTGATATTGCCTCTGATCATAGTCAGACCAACATTGCTACGACCCGTATTCGCACCGACAC | -2.55 ± 0.22 | -2.18 ± 0.085 |
| ACATTTGTTGATACAACCATAAAATGATAATTACACCCAGCCCGGTCGCCGGCGACACAAACGCCCGGTCGCGGTAAGAGGATCATAGTCAGACCAACATTGCTACGACCCGTATTCGCACCGACAC | 1.03 ± 0.08 | -1.97 ± 0.16 |
| ACATTTGTTGATACAACCATAAAATGATAATTACACCCAGCCCTTGATAATTATCACACCCATAAATTGATATTGCCTCTGATCATAGTCAGACCAACATTGCTACGACCCGTATTCGCACCGACAC | -2.1 ± 0.29 | -1.99 ± 0.04 |
| ACATTTGTTGATACAACCATAAAATGATAATTACACCCATAAAAACTTAATTATCACACCCATAAATTGATATTGCCTCTGATCATAGTCAGACCAACATTGCTACGACCCGTATTCGCACCGACAC | -0.52 ± 0.069 | -0.679 ± 0.12 |
| ACATTTGTTGATACAACCATAAAATGATAATTACACCCATAAAAAGATAATTATCACACCCATAAATTGATATTGCCTCTGATCATAGTCAGACCAACATTGCTACGACCCGTATTCGCACCGACAC | -1.08 ± 0.96 | -0.162 ± 0.011 |

From the supplement of paper PMC10201428
